{"source": "the Immune Epitope Database (IEDB)"}
{"target": "HLA-A*02:01", "test": "IEDB peptide-MHC binding, purified MHC/competitive/radioactivity; ≥ and ≤ were set here for values at or beyond the usual limits of such assays", "conditions": "source organism: Vaccinia virus WR", "units": {"IC50": "nM"}}
{"sequence": "ILSPPINAPI", "IC50": 38}
{"sequence": "ILTAILFFM", "IC50": 35}
{"sequence": "ILTLDIFYL", "IC50": 1.3}
{"sequence": "ILTREMGFL", "IC50": 2280}
{"sequence": "ILTREMGFLV", "IC50": 7}
{"sequence": "ILVCYILYI", "IC50": 19}
{"sequence": "ILWFFNAMVL", "IC50": 11}
{"sequence": "ILYAAFLWL", "IC50": 112}
{"sequence": "ILYDNVVTL", "IC50": 0.51}
{"sequence": "ILYLYETYHL", "IC50": 9}
{"sequence": "ILYMVVDGSV", "IC50": 107}
{"sequence": "IMEYHLLFA", "IC50": 13}
{"sequence": "IMFKDDNII", "IC50": 235}
{"sequence": "IMFKDDNIIM", "IC50": 141}
{"sequence": "IMFTCMDPL", "IC50": 2.1}
{"sequence": "IMLEGETKL", "IC50": 6.7}
{"sequence": "IMLNGIMYRL", "IC50": 14}
{"sequence": "IMVTDTINT", "IC50": 2360}
{"sequence": "IMYTYFSNT", "IC50": 57}
{"sequence": "IMYTYFSNTI", "IC50": 99}
{"sequence": "IQAKTKNFTI", "IC50": 4230}
{"sequence": "IQESFIRFTV", "IC50": 17}
{"sequence": "ITLSLSKQDI", "IC50": 211}
{"sequence": "ITLTNVVNI", "IC50": 927}
{"sequence": "ITLYDFDYYI", "IC50": 29}
{"sequence": "ITNGYLISI", "IC50": 54}
{"sequence": "IVALTIMGV", "IC50": 27}
{"sequence": "IVEVPEDGI", "IC50": 2450}
{"sequence": "IVFNLPVSKV", "IC50": 53}
{"sequence": "IVFVFILTA", "IC50": 294}
{"sequence": "IVIEAIHTV", "IC50": 1410}
{"sequence": "IVIGVIILA", "IC50": 664}
{"sequence": "IVISPMGKL", "IC50": 896}
{"sequence": "IVLFILKIFV", "IC50": 271}
{"sequence": "IVLSNTSTAV", "IC50": 725}
{"sequence": "IVLYNGVNYL", "IC50": 225}
{"sequence": "IVMDNDDNI", "IC50": 445}
{"sequence": "IVMDNDDNIL", "IC50": 883}
{"sequence": "IVSKLTFLDV", "IC50": 85}
{"sequence": "IVSVSESNI", "IC50": 2350}
{"sequence": "IVVELEPSL", "IC50": 2110}
{"sequence": "IVWEKKSLV", "IC50": 2.1}
{"sequence": "IVYCLNALV", "IC50": 102}
{"sequence": "KANCTAESST", "IC50": 2760}
{"sequence": "KIADDRIVV", "IC50": 6.6}
{"sequence": "KIDKLRQIV", "IC50": 1560}
{"sequence": "KIFETIYYGA", "IC50": 604}
{"sequence": "KIFIDNIYIV", "IC50": 522}
{"sequence": "KIFYKHIHKI", "IC50": 539}
{"sequence": "KIIETYLGRV", "IC50": 30}
{"sequence": "KIIKKMEDMV", "IC50": 2670}
{"sequence": "KILAIIFLVL", "IC50": 383}
{"sequence": "KILSASNRL", "IC50": 766}
{"sequence": "KINPTLDNI", "IC50": 244}
{"sequence": "KISLDISQL", "IC50": 2280}
{"sequence": "KLDYWSFQL", "IC50": 2.1}
{"sequence": "KLFFAKCLV", "IC50": 23}
{"sequence": "KLFFAKCLVV", "IC50": 2.3}
{"sequence": "KLFLIKKMA", "IC50": 1070}
{"sequence": "KLFTDNNFL", "IC50": 2}
{"sequence": "KLFYVYYNL", "IC50": 0.49}
{"sequence": "KLGNLLLLI", "IC50": 0.43}
{"sequence": "KLHLISLLSL", "IC50": 97}
{"sequence": "KLIGITAIM", "IC50": 20}
{"sequence": "KLITFLFVI", "IC50": 15}
{"sequence": "KLITSAFDLL", "IC50": 457}
{"sequence": "KLLISKGIEI", "IC50": 132}
{"sequence": "KLLKMVTSV", "IC50": 1.2}
{"sequence": "KLLLWFNYL", "IC50": 2}
{"sequence": "KLMGTITLNA", "IC50": 12}
{"sequence": "KLMIYGLPWM", "IC50": 11}
{"sequence": "KLNGAMVEYV", "IC50": 6.1}
{"sequence": "KLNKMTVEL", "IC50": 6.5}
{"sequence": "KLQAAPYIV", "IC50": 1.2}
{"sequence": "KLQAAVMET", "IC50": 363}
{"sequence": "KLRPNSFWFV", "IC50": 2}
{"sequence": "KLSCAVHLI", "IC50": 3.2}
{"sequence": "KLSDVGHQYA", "IC50": 21}
{"sequence": "KLSSYHVVSV", "IC50": 16}
{"sequence": "KLTDKKTFI", "IC50": 1120}
{"sequence": "KLTDKKTFII", "IC50": 4390}
{"sequence": "KLTDSLSSQM", "IC50": 935}
{"sequence": "KLTFLDVEV", "IC50": 93}
{"sequence": "KLVDICDRI", "IC50": 6.9}
{"sequence": "KLVDICDRIV", "IC50": 32}
{"sequence": "KLVSISNFI", "IC50": 6.3}
{"sequence": "KLYLVDYGL", "IC50": 13}
{"sequence": "KLYLVDYGLV", "IC50": 20}
{"sequence": "KLYTIVSTL", "IC50": 15}
{"sequence": "KMAGGIGLSI", "IC50": 9.7}
{"sequence": "KMCTVSDYI", "IC50": 36}
{"sequence": "KMEYNLYAEL", "IC50": 297}
{"sequence": "KMHDVIAPA", "IC50": 2.6}
{"sequence": "KMIPLLFIL", "IC50": 2.9}
{"sequence": "KQDISLKRNA", "IC50": 778}
{"sequence": "KQDRSDGYFL", "IC50": 3910}
{"sequence": "KQFIQRGGL", "IC50": 3990}
{"sequence": "KTDGIPITI", "IC50": 48}
{"sequence": "KTFKDESIFI", "IC50": 93}
{"sequence": "KTIIDPDFV", "IC50": 346}
{"sequence": "KTISVVTLL", "IC50": 287}
{"sequence": "KTITTCYLM", "IC50": 445}
{"sequence": "KTMAVTYEL", "IC50": 0.4}
{"sequence": "KTSTLIFFV", "IC50": 1}
{"sequence": "KVFFGPIYYL", "IC50": 18}
{"sequence": "KVHGLDVKNV", "IC50": 1900}
{"sequence": "KVTRFYFNM", "IC50": 95}
{"sequence": "KVYDKLFPV", "IC50": 0.34}
{"sequence": "LAALFMYYA", "IC50": 52}
{"sequence": "LAERFCTEV", "IC50": 234}
{"sequence": "LAKAIITPVV", "IC50": 2360}
{"sequence": "LIAFSSGTV", "IC50": 1810}
{"sequence": "LIFFVIILA", "IC50": 234}
{"sequence": "LILSCIFAFI", "IC50": 18}
{"sequence": "LILSLTCSV", "IC50": 1.3}
{"sequence": "LIMYSVIGV", "IC50": 0.55}
{"sequence": "LIQEIVHEV", "IC50": 33}
{"sequence": "LISGSTFSI", "IC50": 496}
{"sequence": "LISLTNEIYA", "IC50": 1220}
{"sequence": "LITLTNVVNI", "IC50": 1060}
{"sequence": "LITMLSIIL", "IC50": 115}
{"sequence": "LITWLIDYV", "IC50": 71}
{"sequence": "LIVLFEVFV", "IC50": 1930}
{"sequence": "LIVLFEVFVV", "IC50": 2070}
{"sequence": "LIVRYLIQV", "IC50": 13}
{"sequence": "LIYSMEFTNL", "IC50": 345}
{"sequence": "LLDLFGPEV", "IC50": 6}
{"sequence": "LLEAVYGNI", "IC50": 864}
{"sequence": "LLEIHQYPA", "IC50": 98}
{"sequence": "LLFDRDTFYI", "IC50": 0.4}
